Patent publication US20260232824A1 (CHAMPIONS ONCOLOGY, published 2026)

T1: human MD-1 on HEK293 cells (human, UniProt O95711 21-162)
T1 construct: whole, on cells; also called HEK293 expressing MD-1 only; MD-1 cells
T1 sequence (looked up): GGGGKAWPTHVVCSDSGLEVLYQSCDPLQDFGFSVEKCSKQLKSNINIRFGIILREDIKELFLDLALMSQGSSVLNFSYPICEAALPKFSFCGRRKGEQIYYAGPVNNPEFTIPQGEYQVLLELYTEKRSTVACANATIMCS

T2: human CD180/human MD-1 on HEK293 cells (human, UniProt Q99467 24-661; O95711 21-162)
T2 construct: whole, on cells; Complex co-expressed on HEK293 cells; also called HEK293 expressing CD180/MD-1; HEK293 CD180/MD-1 cells
T2 sequence (looked up) 1: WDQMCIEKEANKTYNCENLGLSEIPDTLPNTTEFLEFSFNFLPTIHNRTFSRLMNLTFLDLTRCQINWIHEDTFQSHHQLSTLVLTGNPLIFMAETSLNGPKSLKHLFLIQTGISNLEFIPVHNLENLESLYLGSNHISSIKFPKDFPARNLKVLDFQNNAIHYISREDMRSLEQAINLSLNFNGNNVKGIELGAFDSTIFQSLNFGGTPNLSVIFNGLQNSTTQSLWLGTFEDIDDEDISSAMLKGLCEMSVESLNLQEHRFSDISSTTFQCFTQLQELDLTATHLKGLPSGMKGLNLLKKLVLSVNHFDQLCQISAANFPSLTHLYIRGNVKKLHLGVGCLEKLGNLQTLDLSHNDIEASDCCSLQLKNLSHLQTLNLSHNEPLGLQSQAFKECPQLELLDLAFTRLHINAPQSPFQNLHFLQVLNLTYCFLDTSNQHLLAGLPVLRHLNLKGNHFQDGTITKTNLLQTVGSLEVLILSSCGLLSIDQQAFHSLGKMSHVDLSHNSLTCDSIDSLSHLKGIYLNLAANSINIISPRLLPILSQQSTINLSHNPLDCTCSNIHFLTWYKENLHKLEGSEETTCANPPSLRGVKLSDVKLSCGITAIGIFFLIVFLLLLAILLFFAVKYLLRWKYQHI
T2 sequence (looked up) 2: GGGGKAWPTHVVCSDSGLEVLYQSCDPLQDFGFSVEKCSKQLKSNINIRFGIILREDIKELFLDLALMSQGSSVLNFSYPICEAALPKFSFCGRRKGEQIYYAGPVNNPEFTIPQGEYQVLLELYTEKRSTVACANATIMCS

T3: human CD180 extracellular domain (ECD) HIS-tagged protein (Creative Biomart, CD180-3900H) (human, UniProt Q99467 24-626)
T3 construct: extracellular domain; Bought protein; also called soluble human CD180 from Creative Biomart; not shown: His tag
T3 sequence (looked up): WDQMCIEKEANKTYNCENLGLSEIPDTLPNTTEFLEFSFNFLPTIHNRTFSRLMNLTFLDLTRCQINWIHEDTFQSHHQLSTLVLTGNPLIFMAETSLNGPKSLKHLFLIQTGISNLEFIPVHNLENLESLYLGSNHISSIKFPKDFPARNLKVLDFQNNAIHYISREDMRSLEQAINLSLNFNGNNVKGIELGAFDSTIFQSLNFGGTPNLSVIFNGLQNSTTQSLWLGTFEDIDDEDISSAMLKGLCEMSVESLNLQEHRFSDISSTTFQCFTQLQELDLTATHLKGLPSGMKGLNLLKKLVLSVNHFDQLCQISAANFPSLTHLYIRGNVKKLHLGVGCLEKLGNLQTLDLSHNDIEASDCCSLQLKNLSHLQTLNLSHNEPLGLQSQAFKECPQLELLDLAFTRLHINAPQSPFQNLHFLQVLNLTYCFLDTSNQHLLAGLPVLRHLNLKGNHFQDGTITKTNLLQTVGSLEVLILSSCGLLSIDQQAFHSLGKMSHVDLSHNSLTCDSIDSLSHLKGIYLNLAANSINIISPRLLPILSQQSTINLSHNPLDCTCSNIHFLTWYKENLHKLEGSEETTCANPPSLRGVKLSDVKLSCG

T4: human CD180 extracellular domain (ECD) HIS-tagged protein (Sino Biological, 11370-H08H) (human, UniProt Q99467 24-626)
T4 construct: extracellular domain; Bought protein; also called soluble human CD180 from Sino Biologics; human CD180(ECD)-HIS; not shown: His tag
T4 sequence (looked up): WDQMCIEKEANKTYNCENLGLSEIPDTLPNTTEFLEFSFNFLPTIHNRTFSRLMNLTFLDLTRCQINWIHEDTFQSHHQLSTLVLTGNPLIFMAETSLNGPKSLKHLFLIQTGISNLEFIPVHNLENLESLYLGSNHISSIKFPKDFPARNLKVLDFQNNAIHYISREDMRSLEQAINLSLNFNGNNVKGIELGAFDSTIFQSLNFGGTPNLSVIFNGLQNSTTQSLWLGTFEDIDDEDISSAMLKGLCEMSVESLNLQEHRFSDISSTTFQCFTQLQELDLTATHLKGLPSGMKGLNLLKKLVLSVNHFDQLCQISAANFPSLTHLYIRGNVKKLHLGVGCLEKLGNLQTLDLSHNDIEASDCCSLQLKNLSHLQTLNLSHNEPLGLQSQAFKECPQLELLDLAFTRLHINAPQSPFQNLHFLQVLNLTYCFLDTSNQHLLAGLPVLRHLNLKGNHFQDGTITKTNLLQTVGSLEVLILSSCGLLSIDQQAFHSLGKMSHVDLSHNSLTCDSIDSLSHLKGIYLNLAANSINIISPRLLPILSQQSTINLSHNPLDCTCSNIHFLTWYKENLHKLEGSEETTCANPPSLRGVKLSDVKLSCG


Key:
[1] = biological target: T1, human MD-1 on HEK293 cells; assay: cell binding screen by flow cytometry (called cell-based ELISA), HEK293 expressing MD-1 only
Method: (§1) FIGS. 1A-IC show the cell binding properties of the anti-CD180 antibodies. All CHAMP mAbs were subjected to binding assays via cell-based ELISA. FIG. 1A: Antibodies were screened at […] and 30 nM in a cell-based ELISA using HEK293 expressing CD180/MD-1. […] P84, mouse IgG, and 2nd only mouse were negative controls. […] FIG. 1B: Antibodies were screened at […] in cell-based ELISA using HEK293 expressing MD-1 only. […] FIG. 1C: Antibodies were screened at […] in cell-based ELISA using HEK293 parental cell line.
(§2) All mAbs were subjected to cell binding screen detected on a flow cytometer. Engineered cells expressing CD180/MD-1, MD-1, or parental HEK cells were used to test for binding of the antibodies. Antibodies at a concentration of 100 nM or 30 nM were incubated with cells at 4° C. for 45 min. R-Phycoerythrin AffiniPure Goat Anti-Human IgG (Jackson Immunoresearch 109-115-098) was used as the secondary antibody. The binding of antibodies on cells were detected on Intellicyt iQue3 VBR.

[2] = biological target: T2, human CD180/human MD-1 on HEK293 cells; assay: cell binding screen by flow cytometry, cells expressing CD180/MD-1, 100 nM or 30 nM
Method: as §1, §2

[3] = biological target: T2, human CD180/human MD-1 on HEK293 cells; assay: cell-based ELISA / flow cytometry, HEK293 expressing CD180/MD-1, 100 nM and 30 nM
Method: as §1, §2

[4] = biological target: T2, human CD180/human MD-1 on HEK293 cells; assay: cell binding on HEK293 CD180/MD-1 cells (FIG. 14G)
Method: Cells were then incubated with the secondary antibody R-Phycoerythrin AffiniPure Goat Anti-Human IgG (Jackson Immunoresearch 109-115-098). The data was acquired on Intellicyt iQue3 VBR. Median fluorescence intensities (MFI) were plotted against the concentrations of the anti-CD180 antibodies.

[5] = biological target: T3, human CD180 extracellular domain (ECD) …; assay: SPR, antibody captured in a bivalent format, soluble human CD180 from Creative Biomart passed over (FIG. 3B)
Method: (§3) FIGS. 3A-3C show intrinsic binding affinity of the antibodies as determined by Surface Plasmon Resonance (SPR) assay. Antibody was captured in a bivalent format and soluble human CD180 from Sino Biologics (FIG. 3A), Creative Biomart (FIG. 3B), or soluble rhesus CD180 (FIG. 3C) was passed over the captured antibody. […] Kon, koff and KD are indicated for each condition.
(§4) Surface Plasmon Resonance (SPR) was used to identify intrinsic binding affinity. Kinetic experiments were performed on Carterra LSA with a running buffer of PBS pH 7.40, 1% BSA, 0.05% Tween20. Antibodies were captured on an anti-human Fc capture chip prepared with a HC30M chip. […] For each concentration, there was 5 min association followed by 15 min dissociation. Results were processed and analyzed in Carterra LSA Kinetics Software. The kinetic data was referenced with the interstitial reference spots and double-referenced to a buffer cycle, and then fit globally to a 1:1 binding model to determine their apparent association and dissociation kinetic rate constants (kₒₙ and koff values). The ratio koff/kₒₙ was used to derive the KD value of each antigen/mAb interaction, i.e., KD=koff/kₒₙ.

[6] = biological target: T4, human CD180 extracellular domain (ECD) …; assay: SPR, antibody captured in a bivalent format, soluble human CD180 from Sino Biologics passed over (FIG. 3A)
Method: as §3, §4

| Binder | binding result [1] | binding result [2] | binding result [3] | EC50 [4] [nM] | binding result [5] | binding result [6] |
| --- | --- | --- | --- | --- | --- | --- |
| Ab-002 (antibody, human IgG1, kappa, V domains shown) VH: EVQLVESGGGLVQPGGSLRLSCAASGFTSVDYAMHWVRQAPGKGLEWVSYISWNNNNIGYADSVKGRFTISRDNAKNSLYLHMSSLRAEDTALYYCAKDIAYNTGYFDYWGQGTLVTVSS VL: not shown | no binding (tested: 100 nM) | binds |  |  |  |  |
| Ab-008 (antibody, human IgG1, kappa, V domains shown) VH: EVQLVESGGGLVQPGRSLRLSCTTSGFTFADYAMHWVRQTPGQGLEWVSGISWNGGTMGYADSVKGRFTISRDIAKNSLYLQMNSLRAEDTALYYCAKDIAYSRGYFQHWGQGTLVTVSS VL: DIQMTQSPSSLSASVGDRVTITCRASQGIRNDLGWYQQKPGKAPKLLIYAASTLQSGVPSRFSGSGSGTDFTLTISSLQPEDVATYYCQKYNSAPFTFGPGTKVDIKR | no binding (tested: 100 nM) |  | binds |  |  |  |
| Ab-009 (antibody, human IgG1, kappa, V domains shown) VH: EVQLVESGGGLVQPGRSLRLSCTTSGFTFADYAMHWVRQTPGKGLEWVSGISWNGVTIDYADSVKGRFTISRDIAKNSLYLQMNSLRAEDTALYYCAKDIAYSRGYFQHWGQGTLVTVSS VL: not shown | no binding (tested: 100 nM) |  |  |  |  |  |
| Ab-012 (antibody, human IgG1, kappa, V domains shown) VH: EVQLVESGGGLVQPGRSLRLSCTTSGFTFADYAMHWVRQTPGQGLEWVSGISWNGGTMGYADSVKGRFTISRDIAKNSLYLQMNSLRAEDTALYYCAKDIAYSRGYFQHWGQGTLVTVSS VL: not shown | no binding (tested: 100 nM) |  | binds |  |  |  |
| Ab-016 (antibody, human IgG1, kappa, V domains shown) VH: EVQLVESGGGLVQPGRSLRLSCTTSGFTFADYAMHWVRQTPGKGLEWVSGISWNGGTIGYADSVKGRFTISRDIAKNSLYLQMNSLRAEDTALYYCAKDIAYSRGYFQHWGQGTLVTVSS VL: not shown | no binding (tested: 100 nM) |  | binds |  |  |  |
| Ab-010 (antibody, human IgG1, kappa, V domains shown) VH: EVQLVESGGGLVQPGGSLRLSCTSSGFTFADYAMHWVRQTPGKGLEWVSGISWNGGTFDYADSVKGRFTISRDIAKNSLYLQMNSLRVEDTALYYCAKDIAYSRGYFQHWGQGTLVTVSS VL: not shown | no binding (tested: 100 nM) |  | binds |  |  |  |
| Ab-005 (antibody, human IgG1, kappa, V domains shown) VH: EVQLVESGGGLVQPGGSLRLSCTTSGFTFADYAMHWVRQTPGKGLEWVSGISWNGGTIGYADSVKGRFTISRDIAKNSLYLQMNSLRAEDTALYYCAKDIAYSRGYFQHWGQGTLVTVSS VL: not shown | no binding (tested: 100 nM) | binds |  |  |  |  |
| Ab-003 (antibody, human IgG1, kappa, V domains shown) VH: EVQLVESGGGLVQPGRSLRLSCTTSGFTFADYAMHWVRQTPGQGLEWVSGISWNGGTMGYADSVKGRFTISRDIAKNSLYLQMNSLRAEDTALYYCAKDIAYSRGYFQHWGQGTLVTVSS VL: not shown | no binding (tested: 100 nM) | binds |  |  |  |  |
| Ab-004 (antibody, human IgG1, kappa, V domains shown, also called CHAMPmAB-004) VH: EVQLVESGGGLVQPGGSLRLSCTTSGFTFADYAMHWVRQTPGKGLEWVSGISWNGVTIDYADSVKGRFTISRDIAKNSLYLQMNSLRAEDTALYYCAKDIAYSRGYFQHWGQGTLVTVSS VL: not shown | no binding (tested: 100 nM) | binds |  |  |  |  |
| Ab-017 (antibody, human IgG1, kappa, V domains shown) VH: EVQLVESGGGLVQPGRSLRLSCTTSGFTFADYAMHWVRQTPGQGLEWVSGISWNGGTMGYADSVKGRFTISRDIAKNSLYLQMNSLRAEDTALYYCAKDIAYSRGYFQHWGQGTLVTVSS VL: not shown | no binding (tested: 100 nM) |  | binds |  |  |  |
| Ab-014 (antibody, human IgG1, kappa, V domains shown, also called CHAMPmAB-014) VH: EVQLVESGGGLVQPGRSLRLSCTTSGFTFADYAMHWVRQTPGKGLEWVSGISWNGVTIDYADSVKGRFTISRDIAKNSLYLQMNSLRAEDTALYYCAKDIAYSRGYFQHWGQGTLVTVSS VL: not shown | no binding (tested: 100 nM) |  |  | 4 |  |  |
| Ab-007 (antibody, human IgG1, kappa, V domains shown, also called ChampmAb-007; Champ mAb-007) VH: EVQLVESGGGVVRPGGSLRLSCAASGFTFDDYAMSWVRQAPGKGLEWVSDINWNGGTTSYADSVKGRFTISRDNAKNSLFLQMNSLRAEDTALYYCARKGRDTVVVKGYYYFSYYMDVWGKGSTVTVSS VL: not shown | no binding (tested: 100 nM) |  | binds |  | binds | binds |
| Ab-006 (antibody, human IgG1, kappa, V domains shown, also called ChampmAb-006; Champ mAb-006) VH: EVQLVESGGGLVKPGGSLRLSCTASGFTFDDYDMTWVRQAPGKGLEWVSGINWNGGNTDYADSVKGRFTISRDNTKNSLYLQMNSLRAEDTALYYCARKGRDIVVVKGFYYHYYYMDVWGKGITVTVSS VL: not shown | no binding (tested: 100 nM) | binds |  |  | binds | binds |
